The assay has as its target OSCAR specific ligand expressed on the surface of primary murine osteoblast cells (murine). As to the kind of experiment: cell-based or functional assay.

“soluble murine OSCAR-Ig fusion polypeptide (extracellular domain of murine OSCAR fused to the Fc region of human IgG1) (Fc fusion)” showed a dentine resorption pits per slice (pits per slice) of 7 and an inhibition of dentine resorption (fold) of over 10 fold.

These data come from patent US20040092714A1.
